For this assay, the target named is dynorphin A-(1-13)-OH 1-13 (Homo sapiens, UniProt P01213). Description: radioligand competition. (In a radioligand displacement assay an active substance lowers the binding of a labelled ligand.)

B1: mu opioid receptor (protein)
chain: MDSSTGPGNTSDCSDPLAQASCSPAPGSWLNLSHVDGNQSDPCGLNRTGLGGNDSLCPQTGSPSMVTAITIMALYSIVCVVGLFGNFLVMYVIVRYTKMKTATNIYIFNLALADALATSTLPFQSVNYLMGTWPFGTILCKIVISIDYYNMFTSIFTLCTMSVDRYIAVCHPVKALDFRTPRNAKIVNVCNWILSSAIGLPVMFMATTKYRQGSIDCTLTFSHPTWYWENLLKICVFIFAFIMPVLIITVCYGLMILRLKSVRMLSGSKEKDRNLRRITRMVLVVVAVFIVCWTPIHIYVIIKALITIPETTFQTVSWHFCIALGYTNSCLNPVLYAFLDENFKRCFREFCIPTSSTIEQQNSTRVRQNTREHPSTANTVDRTNHQLENLEAETAPLP
On to B1, for which the Ki (usually a measure of affinity in units of concentration, obtained from inhibition or displacement) turned out to be 4 nM.

For the origin of these results see publication PMC3942532 (2014).
